This experiment addresses T1, Alexa488-PLCβ1 (purified PLCβ1a) (UniProt P10687 1-1216, Alexa488 on the N-terminus).
T1 sequence: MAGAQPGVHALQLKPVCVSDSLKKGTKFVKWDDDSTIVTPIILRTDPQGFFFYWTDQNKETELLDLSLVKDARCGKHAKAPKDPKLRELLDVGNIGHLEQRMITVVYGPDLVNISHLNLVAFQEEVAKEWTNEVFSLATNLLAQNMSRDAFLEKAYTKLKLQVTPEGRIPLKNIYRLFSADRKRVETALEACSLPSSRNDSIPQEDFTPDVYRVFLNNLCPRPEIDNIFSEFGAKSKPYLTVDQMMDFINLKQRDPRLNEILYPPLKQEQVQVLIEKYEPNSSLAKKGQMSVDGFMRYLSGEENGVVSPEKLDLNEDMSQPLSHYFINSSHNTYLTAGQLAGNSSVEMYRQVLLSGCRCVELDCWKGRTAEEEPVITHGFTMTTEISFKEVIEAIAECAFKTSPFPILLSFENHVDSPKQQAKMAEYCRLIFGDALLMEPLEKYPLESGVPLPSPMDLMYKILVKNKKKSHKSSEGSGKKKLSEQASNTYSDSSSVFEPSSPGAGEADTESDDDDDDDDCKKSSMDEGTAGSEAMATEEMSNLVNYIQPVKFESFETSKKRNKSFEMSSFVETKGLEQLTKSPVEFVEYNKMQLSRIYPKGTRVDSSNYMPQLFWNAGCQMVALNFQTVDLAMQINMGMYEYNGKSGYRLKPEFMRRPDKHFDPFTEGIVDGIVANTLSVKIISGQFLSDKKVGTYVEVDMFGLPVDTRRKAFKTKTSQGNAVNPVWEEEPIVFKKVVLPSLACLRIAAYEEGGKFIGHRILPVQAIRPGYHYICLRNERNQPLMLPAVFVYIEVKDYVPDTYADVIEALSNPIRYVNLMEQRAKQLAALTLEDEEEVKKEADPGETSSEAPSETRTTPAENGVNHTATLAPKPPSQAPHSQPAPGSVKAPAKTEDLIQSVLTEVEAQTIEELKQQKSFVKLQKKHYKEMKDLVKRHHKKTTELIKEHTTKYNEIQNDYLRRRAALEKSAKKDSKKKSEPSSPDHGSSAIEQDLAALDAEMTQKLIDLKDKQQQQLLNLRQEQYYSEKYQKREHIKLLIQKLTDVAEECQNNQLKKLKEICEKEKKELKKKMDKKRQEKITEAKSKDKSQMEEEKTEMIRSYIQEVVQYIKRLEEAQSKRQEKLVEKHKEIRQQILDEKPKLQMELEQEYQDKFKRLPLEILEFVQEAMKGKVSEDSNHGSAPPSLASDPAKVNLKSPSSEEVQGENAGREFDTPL
The experiment can be described thus: other fluorescence titration.

B1: Alexa594-eIF5A (purified) (natural protein)
chain: not shown
modifications: Alexa594 on the N-terminus
On to B1, for which binding was characterised by a dissociation constant (Kd) of 0.027 ± 0.005 µM.

The values above are taken from article doi:10.1101/521369 (bioRxiv, 2019).
